Here are results for four molecules from US20170267762A1 (APOLLOMICS, published 2017).

Test [1] deals with T1, human PD-1 on cells (293T cells transfected with human PD-1) (human, UniProt Q15116 25-288).
T1 construct: whole, on cells; Also used as the target for the functional rows, where PD-1 stands on human T cells
Nature of the test: FACS binding to 293T cells expressing human PD-1, MFI. The protocol:
The cells were incubated with the indicated antibody (20 ug/ml with the dilution of ⅕) at 4° C. for 1 h. Cells were washed three times with FACS buffer. A secondary antibody (PE Goat anti-mouse: 1:200; PE mouse anti-human: 1:10) was added to the cells at 100 ul/well, and incubated at 4° C. for 40min. Cells were washed three times with FACS buffer and analyzed by FACS Array.
On the technique in general: A flow cytometer gives signals particle by particle.

In test [2] the target is T2, human PD-1 (construct not stated) (human, UniProt Q15116 25-167, limits assumed).
T2 construct: also called PD-1 analyte
Put plainly: SPR (Biacore 3000), antibody captured on the chip, PD-1 as analyte, 1:1 Langmuir fit. The protocol:
To characterize the binding characteristics of the humanized antibodies, the binding kinetics between PD-1 and PD-1 antibodies were measured by Biacore3000 and recorded with a data collection rate of 1 Hz. The polyclonal rabbit anti-mouse IgG (GE, BR-1008-38) was diluted with 10 mM pH 5.0 sodium acetate and immobilized onto reference and experiment flow cells of a CMS biosensor chip to around 15000 RU using an amine coupling kit (GE, BR10050). In the beginning of each cycle, diluted test antibody (1.5 μg/mL) was injected over experiment flow cell for 1 minute to be captured. PD-1 analyte series were prepared by diluting the stocks with running buffer to 100nM followed by 2× serial dilution in the same buffer down to 0.78nM. Analytes were injected in series over the reference and experiment flow cells for 3 minutes at a flow rate of 30 μL/minute. Then running buffer (PBS with 0.05% P20) was allowed to flow over for 10 minutes at a flow rate of 30 μL/minute. At the end of each cycle, the biosensor surface was regenerated with 3 minutes injection of 10 mM pH1.7 Glycine-HC1 buffer at a flow rate of 10 μL/minute. For each analyte sample injection (i.e. each cycle), binding responses obtained from the experimental biosensor surface were double referenced by subtracting simultaneously recorded responses from the reference surface followed by additional subtraction of responses from a single referenced running buffer sample. The association and dissociation rate constants (ka and kd) were determined simultaneously by fitting double-referenced sensorgrams of the entire titration series to Langmuir model (1:1) using Biaevaluation 4.0 software. The dissociation constant, KD, was calculated from the determined rate constants by the relation KD =kd/ka. […] The Biocore binding curves are shown in FIGS. 10 and 17A, top panel, and the quantified binding data are summarized in FIGS. 10 and 17A, bottom panel.
For orientation: In SPR one partner is held on a chip, and binding of the other changes the refractive index at the surface.

Test [3] has as its target T1, human PD-1 on cells (293T cells …). Put plainly: FACS ligand blockage: biotin-labeled PD-L1 binding to 293T cells expressing human PD-1, MFI. As to the method: Various concentrations of the testing hybridoma antibodies were added to the cell suspension and incubated at 4° C. for 60 minutes in 96 well plates. […] Plates were washed 3 times, and mouse anti-biotin PE antibody (Biolgend, cat# 409004) was added. Flow cytometric analyses were performed using a FACS Array.

For test [4], the target named is T3, human PD-1 extracellular domain fused with human Fc tag (hPD-1-hFc) (human).
T3 construct: also called human PD-1-hFc
Nature of the test: ELISA binding to plate-bound PD-1, OD450 (methods similar to Example 2: plate coated with PD1-hFc).

Test [5] concerns the target T4, human PD-1 extracellular domain fused with mouse Fc (PD-1-mFc) (human, UniProt Q15116 25-170).
T4 construct: extracellular domain; not used because of the label; also called hPD-1-mFc; human PD-1-mouse Fc fusion protein
Nature of the test: ELISA ligand blockage: biotinylated PD-L1-mFc binding to plate-bound PD-1, OD450 (methods similar to Example 2: PD-1-mFc coated). In general terms: In an ELISA, binding on a coated surface is turned into a signal by an enzyme label.

For test [6], the target named is T1, human PD-1 on cells (293T cells …). Nature of the test: FACS ligand blockage: PD-L1 binding to 293T-PD1 cells.

For orientation: EC50 means the concentration needed to bring the measured effect to its halfway point. A high value points to a need for much substance. For orientation: Kd means a measure of binding affinity in units of concentration. A word on the koff: it is the first-order rate constant of dissociation. A low value points to a long-lived complex. A word on the kon: it is a measure of how fast the partners come together. The low end stands for slower complex formation, the high end for faster complex formation. One may read the IC50 as the concentration needed to halve the response being measured. A high value points to a need for much substance.

T2 sequence (Q15116 25-167 limits assumed): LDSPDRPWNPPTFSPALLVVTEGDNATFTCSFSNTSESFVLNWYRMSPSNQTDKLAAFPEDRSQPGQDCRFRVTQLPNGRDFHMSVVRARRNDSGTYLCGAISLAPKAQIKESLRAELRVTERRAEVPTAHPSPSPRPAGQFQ
T3 sequence (chain, as listed by the source limits assumed): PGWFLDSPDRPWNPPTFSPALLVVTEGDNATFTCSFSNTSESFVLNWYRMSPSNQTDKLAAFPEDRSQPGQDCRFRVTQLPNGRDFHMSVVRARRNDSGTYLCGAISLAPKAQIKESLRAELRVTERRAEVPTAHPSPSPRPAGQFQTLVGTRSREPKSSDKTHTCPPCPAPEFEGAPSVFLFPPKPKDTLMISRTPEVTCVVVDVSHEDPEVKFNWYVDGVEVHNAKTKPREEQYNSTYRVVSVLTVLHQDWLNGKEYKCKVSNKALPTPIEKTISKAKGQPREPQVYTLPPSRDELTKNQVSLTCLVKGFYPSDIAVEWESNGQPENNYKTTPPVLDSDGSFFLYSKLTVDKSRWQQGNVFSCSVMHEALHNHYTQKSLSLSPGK
T4 sequence (Q15116 25-170): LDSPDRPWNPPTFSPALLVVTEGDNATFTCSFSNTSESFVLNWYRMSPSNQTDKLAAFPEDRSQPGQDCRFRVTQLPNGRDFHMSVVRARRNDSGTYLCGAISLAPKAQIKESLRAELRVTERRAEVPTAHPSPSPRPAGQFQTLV
T1 sequence (Q15116 25-288): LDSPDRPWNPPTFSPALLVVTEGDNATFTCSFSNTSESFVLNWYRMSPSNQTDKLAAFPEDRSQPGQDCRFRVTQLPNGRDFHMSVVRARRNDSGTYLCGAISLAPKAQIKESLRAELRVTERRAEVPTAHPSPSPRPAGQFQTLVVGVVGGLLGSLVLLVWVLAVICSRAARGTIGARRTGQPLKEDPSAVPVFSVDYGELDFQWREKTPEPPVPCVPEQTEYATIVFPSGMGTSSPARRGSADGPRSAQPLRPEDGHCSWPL

B1: humanized 13F1-hIgG4 (antibody)
heavy: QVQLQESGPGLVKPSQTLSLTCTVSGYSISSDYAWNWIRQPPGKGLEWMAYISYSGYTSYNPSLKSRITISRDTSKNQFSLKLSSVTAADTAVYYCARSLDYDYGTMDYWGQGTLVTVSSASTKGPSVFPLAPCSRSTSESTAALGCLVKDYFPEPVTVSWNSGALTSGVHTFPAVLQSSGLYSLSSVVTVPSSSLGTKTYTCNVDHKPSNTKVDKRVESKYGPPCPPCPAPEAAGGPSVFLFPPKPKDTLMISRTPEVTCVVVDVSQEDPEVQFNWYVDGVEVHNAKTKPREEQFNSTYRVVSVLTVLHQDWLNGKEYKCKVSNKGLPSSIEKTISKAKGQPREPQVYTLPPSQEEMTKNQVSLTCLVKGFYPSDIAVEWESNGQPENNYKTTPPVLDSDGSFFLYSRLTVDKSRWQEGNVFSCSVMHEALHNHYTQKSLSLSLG
light: EIVLTQSPATLSLSPGERATLSCRANSSVSSMHWYQQKPGQSPEPWIYAISNLAFGVPARFSGSGSGTDYTLTISSLEPEDFAVYYCQQWSSRPPTFGQGTKLEIKRTVAAPSVFIFPPSDEQLKSGTASVVCLLNNFYPREAKVQWKVDNALQSGNSQESVTEQDSKDSTYSLSSTLTLSKADYEKHKVYACEVTHQGLSSPVTKSFNRGEC
notes: IgG4 constant region with F234A and L235A, already in the entry; also called h13F1-IgG4; hu-13F1-hIgG4
B1 had an EC50 in test [1] of 0.0763 µg/mL. Also, in test [2], the Ka is 5.78e+09 M⁻¹, the Kd came out at 173 pM, the dissociation rate constant (koff) is 0.000119 s⁻¹ and the kon amounted to 687000 M⁻¹ s⁻¹. The same molecule showed an IC50 in test [3] of 0.026 µg/mL. The same molecule displayed an EC50 in test [4] of 0.031 µg/mL. The molecule also yielded an IC50 in test [5] of 0.579 µg/mL.

B2: humanized 7A4D-hIgG4 (antibody, V domains shown)
VH: QIQLVQSGSELKKPGASVKVSCKASGYTFTNFGMNWVRQAPGQGLKWMGWISGYTREPTYAADFKGRFVISLDTSVSTAYLQISSLKAEDTAVYYCARDVFDYWGQGTLVTVSS
VL: DIVLTQSPASLAVSPGQRATITCRASESVDNYGYSFMNWFQQKPGQPPKLLIYRASNLESGVPARFSGSGSRTDFTLTINPVEADDTANYYCQQSNADPTFGQGTKLEIKR
notes: also called h7A4D
Turning to B2, the half-maximal inhibitory concentration (IC50) in test [6] was 0.0258 µg/mL. In test [2], this molecule yielded a Ka of 2.55e+09 M⁻¹, a Kd of 391 pM, a koff of 0.000532 s⁻¹ and a kon of 1.36e+06 M⁻¹ s⁻¹.

B3: humanized 7A4-hIgG4 (antibody)
heavy: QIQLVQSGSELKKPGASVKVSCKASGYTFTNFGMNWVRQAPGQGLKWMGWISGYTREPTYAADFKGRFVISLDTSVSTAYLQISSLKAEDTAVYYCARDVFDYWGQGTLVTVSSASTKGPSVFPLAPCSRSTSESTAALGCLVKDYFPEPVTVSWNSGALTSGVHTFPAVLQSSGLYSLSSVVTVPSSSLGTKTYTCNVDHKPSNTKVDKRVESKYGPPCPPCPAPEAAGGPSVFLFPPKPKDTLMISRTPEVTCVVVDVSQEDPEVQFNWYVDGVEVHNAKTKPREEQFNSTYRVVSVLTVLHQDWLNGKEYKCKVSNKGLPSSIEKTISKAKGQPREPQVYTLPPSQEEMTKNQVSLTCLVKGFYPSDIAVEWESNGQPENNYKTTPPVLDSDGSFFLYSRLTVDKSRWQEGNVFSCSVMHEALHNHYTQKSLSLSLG
light: DIVLTQSPASLAVSPGQRATITCRASESVDNYGYSFMNWFQQKPGQPPKLLIYRASNLESGVPARFSGSGSRTDFTLTINPVEANDTANYYCQQSNADPTFGQGTKLEIKRTVAAPSVFIFPPSDEQLKSGTASVVCLLNNFYPREAKVQWKVDNALQSGNSQESVTEQDSKDSTYSLSSTLTLSKADYEKHKVYACEVTHQGLSSPVTKSFNRGEC
notes: IgG4 constant region with F234A and L235A, already in the entry; also called h7A4-IgG4; 7A4-huIgG4
B3 gave an EC50 in test [1] of 0.0621 µg/mL. Besides, in test [2], the Ka is 2.93e+09 M⁻¹; the affinity, expressed as Kd, was 342 pM; the koff is 0.000498 s⁻¹; the association rate constant (kon) was determined as 1.46e+06 M⁻¹ s⁻¹. Also, the IC50 in test [3] was 0.0169 µg/mL. Moreover, the midpoint of the response in test [4], the EC50, lay at 0.0707 µg/mL. The molecule further registered an IC50 in test [5] of 0.886 µg/mL.

B4: humanized 7A4-hIgG1 (antibody)
heavy: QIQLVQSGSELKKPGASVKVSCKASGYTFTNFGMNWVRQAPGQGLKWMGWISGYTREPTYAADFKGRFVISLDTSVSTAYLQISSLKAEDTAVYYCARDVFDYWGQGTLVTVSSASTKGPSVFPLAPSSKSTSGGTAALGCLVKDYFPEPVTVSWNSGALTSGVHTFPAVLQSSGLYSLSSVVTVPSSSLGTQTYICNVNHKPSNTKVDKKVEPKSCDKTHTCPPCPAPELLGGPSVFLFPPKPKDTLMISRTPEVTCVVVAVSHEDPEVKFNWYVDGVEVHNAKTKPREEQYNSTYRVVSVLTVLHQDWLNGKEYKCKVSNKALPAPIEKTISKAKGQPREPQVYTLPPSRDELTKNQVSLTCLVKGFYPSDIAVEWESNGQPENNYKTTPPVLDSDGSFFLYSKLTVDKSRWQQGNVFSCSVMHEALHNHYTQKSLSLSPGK
light: DIVLTQSPASLAVSPGQRATITCRASESVDNYGYSFMNWFQQKPGQPPKLLIYRASNLESGVPARFSGSGSRTDFTLTINPVEANDTANYYCQQSNADPTFGQGTKLEIKRTVAAPSVFIFPPSDEQLKSGTASVVCLLNNFYPREAKVQWKVDNALQSGNSQESVTEQDSKDSTYSLSSTLTLSKADYEKHKVYACEVTHQGLSSPVTKSFNRGEC
notes: IgG1 constant region with D265A, already in the entry; also called h7A4-IgG1; hu-7A4-D265A-hIgG1
In test [1], B4 showed a half-maximal effective concentration (EC50) of 0.0332 µg/mL. Also, in test [2], the Ka came to 9.82e+09 M⁻¹, the Kd was found to be 102 pM, the koff came to 0.000212 s⁻¹ and the on-rate constant (kon) turned out to be 2.09e+06 M⁻¹ s⁻¹. Also, the concentration for half-maximal inhibition (IC50) in test [3] turned out to be 0.00761 µg/mL. In addition, the EC50 in test [4] is 0.0331 µg/mL. Also, in test [5], the half-maximal inhibitory concentration (IC50) came to 0.763 µg/mL.
